Source: article PMC6555819, “Comprehensive study of nuclear receptor DNA binding provides a revised framework for understanding receptor specificity”
Where a chain is given by its changes, count along the chain named.

B1: NRC3_wobSeed117_DR4_T11G_o1 (dsDNA)
DNA 1: GCCGTCAAAGGTCAACTAAGGTAACGTAAAGCACGCGCGATTGACAGCGTAGAATGAAGG
DNA 2: CCTTCATTCTACGCTGTCAATCGCGCGTGCTTTACGTTACCTTAGTTGACCTTTGACGGC
B2: NRC3_wobSeed113_DR4_A28C_o1 (dsDNA)
DNA 1: GCATATGTAGGTTAGCTGGGGTCATTCCGACTAGGCGCGATTGACAGCGTAGAATGAAGG
DNA 2: CCTTCATTCTACGCTGTCAATCGCGCCTAGTCGGAATGACCCCAGCTAACCTACATATGC
B3: NRC3_wobSeed43_DR1_A25C_o1 (dsDNA)
DNA 1: GCCCAGACAGGTGAAAGGTAACTCCGTCTGGTACGCGCGATTGACAGCGTAGAATGAAGG
DNA 2: CCTTCATTCTACGCTGTCAATCGCGCGTACCAGACGGAGTTACCTTTCACCTGTCTGGGC
B4: NRC3_wobSeed93_DR3_A18G_o1 (dsDNA)
DNA 1: GCAGTCAAAGTTCATCTGGGTAACGTAAGATATGCTGCGATTGACAGCGTAGAATGAAGG
DNA 2: CCTTCATTCTACGCTGTCAATCGCAGCATATCTTACGTTACCCAGATGAACTTTGACTGC
B5: NRC3_wobSeed93_DR3_C16T_o1 (dsDNA)
DNA 1: B4 DNA 1 with C16T, G18A
DNA 2: B4 DNA 2 with C43T, G45A
B6: NRC3_wobSeed44_DR1_T13G_o1 (dsDNA)
DNA 1: GCTGAATGAGGTGAAAGATCAGGGAACGTGGCGTCGGCGATTGACAGCGTAGAATGAAGG
DNA 2: CCTTCATTCTACGCTGTCAATCGCCGACGCCACGTTCCCTGATCTTTCACCTCATTCAGC
B7: NRC3_wobSeed27_DR1_C13T_o1 (dsDNA)
DNA 1: GCACTCGGAGGATAAAGGTCAGAGCTACGCCAGTGAGCGATTGACAGCGTAGAATGAAGG
DNA 2: CCTTCATTCTACGCTGTCAATCGCTCACTGGCGTAGCTCTGACCTTTATCCTCCGAGTGC
B8: NRC3_wobSeed77_DR3_C16G_o1 (dsDNA)
DNA 1: GCACTTACGGGTCAAGGAGGTTATAGCACGCGTATAGCGATTGACAGCGTAGAATGAAGG
DNA 2: CCTTCATTCTACGCTGTCAATCGCTATACGCGTGCTATAACCTCCTTGACCCGTAAGTGC
B9: NRC3_wobSeed77_DR3_G19A_o1 (dsDNA)
DNA 1: B8 DNA 1 with G16C, G19A
DNA 2: B8 DNA 2 with C42T, C45G
B10: NRC3_wobSeed69_DR2_T20C_o1 (dsDNA)
DNA 1: GCAGTCAAAGTTCACTAGGCAACGTAAGATTCAGCTGCGATTGACAGCGTAGAATGAAGG
DNA 2: CCTTCATTCTACGCTGTCAATCGCAGCTGAATCTTACGTTGCCTAGTGAACTTTGACTGC
B11: NRC3_wobSeed46_DR1_G13A_o1 (dsDNA)
DNA 1: GCTTACCAAGGTAAAAGGTCGTTGATGCACGCCTTGGCGATTGACAGCGTAGAATGAAGG
DNA 2: CCTTCATTCTACGCTGTCAATCGCCAAGGCGTGCATCAACGACCTTTTACCTTGGTAAGC
B12: NRC3_wobSeed141_DR5_C26A_o1 (dsDNA)
DNA 1: GCAGTCAAAGTTCAGGACGAGGTAAAGTAAAGCACGGCGATTGACAGCGTAGAATGAAGG
DNA 2: CCTTCATTCTACGCTGTCAATCGCCGTGCTTTACTTTACCTCGTCCTGAACTTTGACTGC
B13: NRC3_wobSeed30_DR1_C8A_o1 (dsDNA)
DNA 1: GCACTAGAAGGCCAAGGGTCACTCAAGATTAGTCCGGCGATTGACAGCGTAGAATGAAGG
DNA 2: CCTTCATTCTACGCTGTCAATCGCCGGACTAATCTTGAGTGACCCTTGGCCTTCTAGTGC
B14: NRC3_wobSeed109_DR4_G4C_o1 (dsDNA)
DNA 1: GCCCTCCAAGGTCATAGGAGGTCAGTGAAGACAGATGCGATTGACAGCGTAGAATGAAGG
DNA 2: CCTTCATTCTACGCTGTCAATCGCATCTGTCTTCACTGACCTCCTATGACCTTGGAGGGC
B15: NRC3_wobSeed111_DR4_A17G_o1 (dsDNA)
DNA 1: GCCGAACTAGGTCAGAGCAGGACAGTGAAGGATGATGCGATTGACAGCGTAGAATGAAGG
DNA 2: CCTTCATTCTACGCTGTCAATCGCATCATCCTTCACTGTCCTGCTCTGACCTAGTTCGGC
B16: NRC3_wobSeed138_DR5_G15T_o1 (dsDNA)
DNA 1: GCGATACAGGGTCATCTAGAGGCCAGAGTATGGAAAGCGATTGACAGCGTAGAATGAAGG
DNA 2: CCTTCATTCTACGCTGTCAATCGCTTTCCATACTCTGGCCTCTAGATGACCCTGTATCGC
B17: NRC3_wobSeed25_DR1_T25A_o1 (dsDNA)
DNA 1: GCCAAACTAGGTCAAAGGTCAAAGACGAGCCAACCAGCGATTGACAGCGTAGAATGAAGG
DNA 2: CCTTCATTCTACGCTGTCAATCGCTGGTTGGCTCGTCTTTGACCTTTGACCTAGTTTGGC
B18: NRC3_wobSeed34_DR1_C5A_o1 (dsDNA)
DNA 1: GCATAGAAAGGTCGAAGGTGAGTATACCCACCCGAAGCGATTGACAGCGTAGAATGAAGG
DNA 2: CCTTCATTCTACGCTGTCAATCGCTTCGGGTGGGTATACTCACCTTCGACCTTTCTATGC
B19: NRC3_wobSeed61_DR2_T24A_o1 (dsDNA)
DNA 1: GCCGTCCAAGGTCAGCAGGTCAGAGAAAGCGACGTGGCGATTGACAGCGTAGAATGAAGG
DNA 2: CCTTCATTCTACGCTGTCAATCGCCACGTCGCTTTCTCTGACCTGCTGACCTTGGACGGC
B20: NRC3_wobSeed18_DR0_G23A_o1 (dsDNA)
DNA 1: GCGATACAGGGTCAAGGCCAGAATACGCGTATTGATGCGATTGACAGCGTAGAATGAAGG
DNA 2: CCTTCATTCTACGCTGTCAATCGCATCAATACGCGTATTCTGGCCTTGACCCTGTATCGC
B21: NRC3_wobSeed90_DR3_G15T_o1 (dsDNA)
DNA 1: GCCATACAGGGTCATCTAGGCCAGAGTAGGGACGGCGCGATTGACAGCGTAGAATGAAGG
DNA 2: CCTTCATTCTACGCTGTCAATCGCGCCGTCCCTACTCTGGCCTAGATGACCCTGTATGGC
B22: NRC3_wobSeed135_DR5_A5C_o1 (dsDNA)
DNA 1: GCCGCACTAGGTCATTGACAGGACAGTGAATAGTAAGCGATTGACAGCGTAGAATGAAGG
DNA 2: CCTTCATTCTACGCTGTCAATCGCTTACTATTCACTGTCCTGTCAATGACCTAGTGCGGC
B23: NRC3_wobSeed5_DR0_A15C_o1 (dsDNA)
DNA 1: GCCCTTACGGGTCACGGTTATAGCACGGGTGGTACGGCGATTGACAGCGTAGAATGAAGG
DNA 2: CCTTCATTCTACGCTGTCAATCGCCGTACCACCCGTGCTATAACCGTGACCCGTAAGGGC
B24: NRC3_wobSeed113_DR4_G15T_o1 (dsDNA)
DNA 1: B2 DNA 1 with G15T, C28A
DNA 2: B2 DNA 2 with G33T, C46A

molecular target: RXRa (Homo sapiens, UniProt P19793); test: no ligand; PBM; 180 nM; PBS pH 7.4, 2% milk, 0.02% Triton X-100, 1 mM DTT, BSA, 0.4 mg/ml salmon testes DNA; conditions: tags: His cleaved; chain copies: 2; label: surface-attached array probe

Binder | binding signal
B1 | 9.06 PBM z-score against 500 random probes

molecular target: PPARg:RXRa (Homo sapiens, UniProt P37231;P19793 full;full); test: no ligand; PBM; 180 nM : 90 nM RXRa; PBS pH 7.4, 2% milk, 0.02% Triton X-100, 1 mM DTT, BSA, 0.4 mg/ml salmon testes DNA; conditions: tags: His kept;His cleaved; copies: 1;1; label: surface-attached array probe
Sequence (P37231 29-505, chain 1 of 2): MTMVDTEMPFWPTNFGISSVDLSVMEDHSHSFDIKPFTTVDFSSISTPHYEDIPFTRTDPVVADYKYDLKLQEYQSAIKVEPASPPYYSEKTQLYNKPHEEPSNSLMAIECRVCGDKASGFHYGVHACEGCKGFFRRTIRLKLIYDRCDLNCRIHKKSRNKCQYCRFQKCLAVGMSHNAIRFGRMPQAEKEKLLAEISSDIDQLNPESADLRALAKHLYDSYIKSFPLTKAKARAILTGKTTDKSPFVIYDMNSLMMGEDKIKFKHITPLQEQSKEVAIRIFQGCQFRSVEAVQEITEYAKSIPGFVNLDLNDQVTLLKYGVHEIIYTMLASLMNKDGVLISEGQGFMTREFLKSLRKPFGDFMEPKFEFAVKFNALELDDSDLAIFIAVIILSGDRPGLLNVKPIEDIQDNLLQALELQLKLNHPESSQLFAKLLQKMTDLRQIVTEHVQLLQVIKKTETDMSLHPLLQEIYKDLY
Sequence (P19793 whole entry, chain 2 of 2): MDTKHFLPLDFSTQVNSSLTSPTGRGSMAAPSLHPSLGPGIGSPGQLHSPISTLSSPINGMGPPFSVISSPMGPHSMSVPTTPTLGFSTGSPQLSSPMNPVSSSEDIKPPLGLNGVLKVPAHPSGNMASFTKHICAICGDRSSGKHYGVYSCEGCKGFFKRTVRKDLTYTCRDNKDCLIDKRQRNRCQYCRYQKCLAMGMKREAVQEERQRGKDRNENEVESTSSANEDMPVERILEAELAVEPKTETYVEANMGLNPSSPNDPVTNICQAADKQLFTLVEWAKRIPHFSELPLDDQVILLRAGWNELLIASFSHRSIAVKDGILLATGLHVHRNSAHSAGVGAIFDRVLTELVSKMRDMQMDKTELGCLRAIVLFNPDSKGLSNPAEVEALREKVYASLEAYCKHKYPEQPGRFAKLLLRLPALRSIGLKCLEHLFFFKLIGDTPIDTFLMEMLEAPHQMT

Binder | binding signal
B2 | 5.53 PBM z-score against 500 random probes
B3 | 5.61 PBM z-score against 500 random probes
B4 | 6.45 PBM z-score against 500 random probes
B5 | 5.92 PBM z-score against 500 random probes
B6 | 6.9 PBM z-score against 500 random probes
B7 | 6.02 PBM z-score against 500 random probes
B8 | 5.22 PBM z-score against 500 random probes
B9 | 4.99 PBM z-score against 500 random probes
B10 | 6.68 PBM z-score against 500 random probes
B11 | 6.58 PBM z-score against 500 random probes
B12 | 4.92 PBM z-score against 500 random probes
B13 | 6.78 PBM z-score against 500 random probes
B14 | 5.72 PBM z-score against 500 random probes
B15 | 5.81 PBM z-score against 500 random probes
B16 | 6.11 PBM z-score against 500 random probes
B17 | 14.6 PBM z-score against 500 random probes
B18 | 5.06 PBM z-score against 500 random probes
B19 | 4.83 PBM z-score against 500 random probes
B20 | 6.34 PBM z-score against 500 random probes
B21 | 5.29 PBM z-score against 500 random probes
B22 | 7.03 PBM z-score against 500 random probes
B23 | 6.21 PBM z-score against 500 random probes

molecular target: RARb:RXRa (Homo sapiens, UniProt P10826;P19793 full;full); test: no ligand; PBM; 270 nM : 90 nM RXRa; PBS pH 7.4, 2% milk, 0.02% Triton X-100, 1 mM DTT, BSA, 0.4 mg/ml salmon testes DNA; conditions: tags: His kept;His cleaved; copies: 1;1; label: surface-attached array probe
In short: (§1)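 The probes on custom Agilent 4×180K protein-binding microarrays were double-stranded, with 34-nt variable regions bearing direct-repeat seeds, single-nucleotide variants, half-site ablations and random human genomic background sequences. Incubation lasted 1 h with ligand-free nuclear receptor dimers in PBS pH 7.4, 2% milk, 0.02% Triton X-100, 1 mM DTT, 0.2 mg/mL BSA and 0.4 mg/ml salmon testes DNA. Antibodies against each partner (one per run) detected bound dimers, and fluorescence scans were regression-normalized. Binding z-scores take the random background probes as reference.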

Binder | binding signal
B1 | 6.27 PBM z-score against 500 random probes

molecular target: VDR:RXRa (Homo sapiens, UniProt P11473;P19793 full;full); test: as above; conditions: tags: His kept;His cleaved; copies: 1;1; label: surface-attached array probe
In short: as §1

Binder | binding signal
B24 | 6.99 PBM z-score against 500 random probes

molecular target: LXRa:RXRa (Homo sapiens, UniProt Q13133;P19793 full;full); test: as above; conditions: tags: His kept;His cleaved; copies: 1;1; label: surface-attached array probe
In short: as §1

Sequence of LXRa:RXRa (Q13133 whole entry, chain 1 of 2): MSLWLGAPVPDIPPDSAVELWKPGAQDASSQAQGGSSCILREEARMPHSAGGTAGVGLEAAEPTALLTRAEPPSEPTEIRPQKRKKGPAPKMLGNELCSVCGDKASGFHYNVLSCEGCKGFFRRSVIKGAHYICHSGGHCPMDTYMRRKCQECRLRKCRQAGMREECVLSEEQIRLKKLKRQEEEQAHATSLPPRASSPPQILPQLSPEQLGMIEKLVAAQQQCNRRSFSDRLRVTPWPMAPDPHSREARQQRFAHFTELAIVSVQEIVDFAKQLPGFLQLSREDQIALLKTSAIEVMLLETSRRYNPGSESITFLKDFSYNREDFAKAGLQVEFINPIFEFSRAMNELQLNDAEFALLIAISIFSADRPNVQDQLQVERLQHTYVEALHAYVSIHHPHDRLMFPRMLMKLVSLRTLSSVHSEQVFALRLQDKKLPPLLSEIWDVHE
Sequence of LXRa:RXRa (P19793 whole entry, chain 2 of 2): as the sequence (P19793 whole entry, chain 2 of 2) above

Binder | binding signal
B24 | 8.36 PBM z-score against 500 random probes
B1 | 7.32 PBM z-score against 500 random probes

molecular target: PPARa:RXRa (Homo sapiens, UniProt Q07869;P19793 full;full); test: as above; conditions: tags: GST kept;His cleaved; copies: 1;1; label: surface-attached array probe
In short: as §1

Binder | binding signal
B1 | 6.96 PBM z-score against 500 random probes

molecular target: LXRb:RXRa (Homo sapiens, UniProt P55055;P19793 full;full); test: as above; conditions: tags: His kept;His cleaved; copies: 1;1; label: surface-attached array probe
In short: as §1

Sequence of LXRb:RXRa (P55055 whole entry, chain 1 of 2): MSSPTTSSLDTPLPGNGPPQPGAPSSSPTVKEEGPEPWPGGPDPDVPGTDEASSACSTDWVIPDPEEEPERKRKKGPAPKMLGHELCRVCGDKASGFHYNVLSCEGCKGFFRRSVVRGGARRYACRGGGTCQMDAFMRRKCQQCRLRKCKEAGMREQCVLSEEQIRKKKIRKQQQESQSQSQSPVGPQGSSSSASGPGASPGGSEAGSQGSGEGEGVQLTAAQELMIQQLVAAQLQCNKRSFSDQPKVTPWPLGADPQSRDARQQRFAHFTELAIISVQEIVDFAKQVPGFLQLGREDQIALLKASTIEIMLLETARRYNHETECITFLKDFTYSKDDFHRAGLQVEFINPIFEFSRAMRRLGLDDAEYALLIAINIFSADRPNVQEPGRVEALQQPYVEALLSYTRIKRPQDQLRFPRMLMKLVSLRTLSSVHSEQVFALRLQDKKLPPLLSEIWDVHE
Sequence of LXRb:RXRa (P19793 whole entry, chain 2 of 2): as the sequence (P19793 whole entry, chain 2 of 2) above

Binder | binding signal
B24 | 7.25 PBM z-score against 500 random probes
B1 | 6.25 PBM z-score against 500 random probes

molecular target: FXR:RXRa (Homo sapiens, UniProt Q96RI1;P19793 full;full); test: as above; conditions: tags: His kept;His cleaved; copies: 1;1; label: surface-attached array probe
In short: as §1

Binder | binding signal
B1 | 8.82 PBM z-score against 500 random probes

molecular target: PXR:RXRa (Homo sapiens, UniProt O75469;P19793 full;full); test: as above; conditions: tags: His kept;His cleaved; copies: 1;1; label: surface-attached array probe
In short: as §1

Sequence of PXR:RXRa (O75469 whole entry, chain 1 of 2): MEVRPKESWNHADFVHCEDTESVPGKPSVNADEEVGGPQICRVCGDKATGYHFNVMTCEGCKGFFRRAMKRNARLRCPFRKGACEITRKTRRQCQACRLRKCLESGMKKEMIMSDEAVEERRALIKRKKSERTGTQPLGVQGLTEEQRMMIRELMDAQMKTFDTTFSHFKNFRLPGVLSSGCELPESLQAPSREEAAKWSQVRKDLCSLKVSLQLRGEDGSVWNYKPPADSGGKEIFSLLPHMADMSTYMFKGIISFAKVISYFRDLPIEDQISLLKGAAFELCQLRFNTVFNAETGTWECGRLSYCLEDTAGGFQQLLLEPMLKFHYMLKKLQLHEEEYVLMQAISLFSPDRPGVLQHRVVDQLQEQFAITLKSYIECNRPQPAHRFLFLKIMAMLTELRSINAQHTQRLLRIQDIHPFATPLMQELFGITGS
Sequence of PXR:RXRa (P19793 whole entry, chain 2 of 2): as the sequence (P19793 whole entry, chain 2 of 2) above

Binder | binding signal
B24 | 6.87 PBM z-score against 500 random probes
B1 | 6.64 PBM z-score against 500 random probes

molecular target: RARg:RXRa (Homo sapiens, UniProt P13631;P19793 full;full); test: as above; conditions: tags: His kept;His cleaved; copies: 1;1; label: surface-attached array probe
In short: as §1

Sequence of RARg:RXRa (P13631 whole entry, chain 1 of 2): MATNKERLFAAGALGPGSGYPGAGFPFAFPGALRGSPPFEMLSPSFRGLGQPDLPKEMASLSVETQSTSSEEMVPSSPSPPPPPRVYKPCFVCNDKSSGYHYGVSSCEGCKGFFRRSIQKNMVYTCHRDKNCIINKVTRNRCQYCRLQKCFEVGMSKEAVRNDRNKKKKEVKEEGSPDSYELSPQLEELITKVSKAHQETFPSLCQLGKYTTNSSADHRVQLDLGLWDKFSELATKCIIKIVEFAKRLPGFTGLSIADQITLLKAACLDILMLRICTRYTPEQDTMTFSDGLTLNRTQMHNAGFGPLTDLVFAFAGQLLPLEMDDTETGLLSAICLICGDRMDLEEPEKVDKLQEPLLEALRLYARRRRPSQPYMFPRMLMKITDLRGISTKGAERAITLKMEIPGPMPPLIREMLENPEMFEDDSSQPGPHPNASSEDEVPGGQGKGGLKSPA
Sequence of RARg:RXRa (P19793 whole entry, chain 2 of 2): as the sequence (P19793 whole entry, chain 2 of 2) above

Binder | binding signal
B1 | 8.38 PBM z-score against 500 random probes
